From the supplement of paper PMC10567573 come the findings set out here.

Sequences and labels used below:
B1: EPB41L3 (parent)
chain: GSKFRYSGRTQAQTRRASALIDRP
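Further: lentivirally expressed fusions sorted by FACS into six bins by GFP to DsRed ratio, PSI derived from sequencing read proportions per bin multiplied by bin number.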

The variants in this data set derive from B1. Briefly: protein stability index of a GFP-peptide fusion (GPS, HEK-293T) (PSI 1-6); higher = more stable. As to conditions: c terminus: a fixed tail appended.
On to GSKFRYSGRTQAQTRRASALIARP [D22A], for which the protein stability index is 2.63.

In the case of GSKFRYSGRTQAQTRRASALIDTP [R23T], the protein stability index came out at 2.58.

In the case of GSKFRYSGRTQAQTRRASALIDNP [R23N], the protein stability index stood at 2.67.

In the case of GSKFRYSGRTQAQTRRASALIDMP [R23M], the protein stability index turned out to be 2.41.

Take GSKFRYSGRTQAQTRRASALIDWP [R23W]: the protein stability index was determined as 2.77.

For the variant GSKFRYSGRTQAQTRRASALIDAP [R23A], the protein stability index stood at 2.81.

For the variant GSKFRYSGRTQAQTRRASALIDHP [R23H], the protein stability index turned out to be 3.16.

Take GSKFRYSGRHQAQTRRASALIDRP [T10H]: the protein stability index worked out at 3.27.

GSKFRYSGRVQAQTRRASALIDRP [T10V]: the protein stability index is 2.84.

For the variant GSKFRYSGRGQAQTRRASALIDRP [T10G], the protein stability index turned out to be 3.66.

Take GSKFRYSGRDQAQTRRASALIDRP [T10D]: the protein stability index was determined as 3.56.

As for GSKFRYSGREQAQTRRASALIDRP [T10E], the protein stability index amounted to 3.01.

For GSKFRYSGRKQAQTRRASALIDRP [T10K], the protein stability index worked out at 3.89.

GSKIRYSGRTQAQTRRASALIDRP [F4I]: the protein stability index worked out at 4.

In the case of GSKYRYSGRTQAQTRRASALIDRP [F4Y], the protein stability index worked out at 3.56.

As to GSKLRYSGRTQAQTRRASALIDRP [F4L], the protein stability index was 3.95.

Regarding GSKVRYSGRTQAQTRRASALIDRP [F4V], the protein stability index amounted to 4.28.

As for GSKPRYSGRTQAQTRRASALIDRP [F4P], the protein stability index was 3.47.

Turning to GSKFRYSGRTQAQSRRASALIDRP [T14S], the protein stability index was found to be 2.67.

With GSKFRYSGRTQAQPRRASALIDRP [T14P], the protein stability index is 2.62.

Turning to GSKFRYSGRTQAQYRRASALIDRP [T14Y], the protein stability index worked out at 2.73.

Regarding GSKFRYSGRTQAQGRRASALIDRP [T14G], the protein stability index turned out to be 3.17.

As to GSKFRYSGRTQAQARRASALIDRP [T14A], the protein stability index was 3.25.

Regarding GSKFRYSGRTQAQWRRASALIDRP [T14W], the protein stability index worked out at 2.22.

On to GSKFRYSGRTQAQTSRASALIDRP [R15S], for which the protein stability index came out at 2.81.

Regarding GSKFRYSGRTQAQTDRASALIDRP [R15D], the protein stability index is 3.2.

GSKFRYSGRTQAQTIRASALIDRP [R15I]: the protein stability index turned out to be 2.66.

Turning to GSKFRYSGRTQAQTKRASALIDRP [R15K], the protein stability index was 2.83.

As for GSKFRYSGRTQAQTTRASALIDRP [R15T], the protein stability index was found to be 3.58.

Turning to GSKFRYSGRTQAQTPRASALIDRP [R15P], the protein stability index came out at 3.3.

With GSKFRYSGRTQAQTHRASALIDRP [R15H], the protein stability index amounted to 2.97.

In the case of GSKFRYSGRTQAQTRRASALIDRH [P24H], the protein stability index stood at 3.47.

In the case of GSKFRYSGRTQAQTRRASALIDRS [P24S], the protein stability index was 2.8.

For the variant GSKFRYSGRTQAQTRRASALIDRW [P24W], the protein stability index came to 2.32.

Consider GSKFRYSGRTQAQTRRASALIDRK [P24K], for which the protein stability index was 3.44.

Consider GSKFRYSGRTQAQTRRASALIDRT [P24T], for which the protein stability index was found to be 3.05.

As to GSKFRYSGRTQAQTRRASALIDRD [P24D], the protein stability index turned out to be 3.56.

GSKFRYSGRTQAQTRRASALIDRF [P24F]: the protein stability index came out at 3.05.

As for GSKFRYSGRTQVQTRRASALIDRP [A12V], the protein stability index was 1.93.

Regarding GSKFRYSGRTQQQTRRASALIDRP [A12Q], the protein stability index was determined as 3.06.

GSKFRYSGRTQWQTRRASALIDRP [A12W]: the protein stability index worked out at 2.25.

On to GSKFRYSGRTQGQTRRASALIDRP [A12G], for which the protein stability index turned out to be 3.11.

In the case of GSKFRYSGRTQEQTRRASALIDRP [A12E], the protein stability index came out at 3.2.

As for GSKFRYSGRTQTQTRRASALIDRP [A12T], the protein stability index came to 2.93.

As to GSKFRYSGRTQKQTRRASALIDRP [A12K], the protein stability index was determined as 3.15.

For the variant GSKFRYSGRTQYQTRRASALIDRP [A12Y], the protein stability index is 2.89.

For GSKFRYSGRTQMQTRRASALIDRP [A12M], the protein stability index was determined as 2.73.

For the variant GSKFRYSGRTQDQTRRASALIDRP [A12D], the protein stability index stood at 3.37.

GYKFRYSGRTQAQTRRASALIDRP [S2Y]: the protein stability index came out at 2.68.

For the variant GAKFRYSGRTQAQTRRASALIDRP [S2A], the protein stability index was 2.66.

Consider GKKFRYSGRTQAQTRRASALIDRP [S2K], for which the protein stability index worked out at 3.56.

For GCKFRYSGRTQAQTRRASALIDRP [S2C], the protein stability index is 2.44.

Regarding GIKFRYSGRTQAQTRRASALIDRP [S2I], the protein stability index came to 2.74.

Consider GWKFRYSGRTQAQTRRASALIDRP [S2W], for which the protein stability index was 2.44.

In the case of GPKFRYSGRTQAQTRRASALIDRP [S2P], the protein stability index turned out to be 2.6.

Consider GQKFRYSGRTQAQTRRASALIDRP [S2Q], for which the protein stability index was 2.77.

GDKFRYSGRTQAQTRRASALIDRP [S2D]: the protein stability index was determined as 4.02.

As to GSKFRYSGRTSAQTRRASALIDRP [Q11S], the protein stability index came to 2.18.

GSKFRYSGRTCAQTRRASALIDRP [Q11C]: the protein stability index came to 2.6.

With GSKFRYSGRTGAQTRRASALIDRP [Q11G], the protein stability index came to 3.16.

Turning to GSKFRYSGRTLAQTRRASALIDRP [Q11L], the protein stability index came out at 2.5.

In the case of GSKFRYSGRTKAQTRRASALIDRP [Q11K], the protein stability index came to 3.11.

As for GSKFRYSGRTRAQTRRASALIDRP [Q11R], the protein stability index is 3.78.

Consider GSKFRYSGRTIAQTRRASALIDRP [Q11I], for which the protein stability index was 2.95.

GSKFRYSGRTQAQTRRASALLDRP [I21L]: the protein stability index worked out at 3.17.

As to GSKFRYSGRTQAQTRRASALKDRP [I21K], the protein stability index was found to be 3.48.

Turning to GSKFRYSGRTQAQTRRASALTDRP [I21T], the protein stability index amounted to 3.21.

For GSKFRYSGRTQAQTRRASALADRP [I21A], the protein stability index amounted to 3.78.

Turning to GSKFRYSGRTQAQTRRASALGDRP [I21G], the protein stability index is 3.9.

Turning to GSKFRYSGRTQAQTRRASALPDRP [I21P], the protein stability index turned out to be 2.71.

As for GSKFRYSGRTQAQTRRASALHDRP [I21H], the protein stability index amounted to 3.32.

In the case of GSKFRYSGRTQAQTRRASALFDRP [I21F], the protein stability index was 2.97.

For the variant GSKFRYSGRTQAQTRRASALSDRP [I21S], the protein stability index turned out to be 3.

As to GSKFRYSGTTQAQTRRASALIDRP [R9T], the protein stability index was found to be 3.01.

With GSKFRYSGDTQAQTRRASALIDRP [R9D], the protein stability index was found to be 3.52.

Take GSKFRYSGVTQAQTRRASALIDRP [R9V]: the protein stability index was determined as 2.85.

For the variant GSKFRYSGLTQAQTRRASALIDRP [R9L], the protein stability index is 2.92.

With GSKFRYSGYTQAQTRRASALIDRP [R9Y], the protein stability index is 2.4.

For the variant GSKFRYSGRTQAQTRRASDLIDRP [A19D], the protein stability index was determined as 3.6.

In the case of GSKFRYSGRTQAQTRRASYLIDRP [A19Y], the protein stability index amounted to 2.07.

Turning to GSKFRYSGRTQAQTRRASVLIDRP [A19V], the protein stability index came out at 2.42.

GSKFRYSGRTQAQTRRASTLIDRP [A19T]: the protein stability index was determined as 3.3.

In the case of GSKFRYSGRTQAQTRRASLLIDRP [A19L], the protein stability index amounted to 3.12.

As for GSKFRYSGRTQAQTRRASILIDRP [A19I], the protein stability index amounted to 3.04.

As to GSKFRYSGRTQAQTRRASWLIDRP [A19W], the protein stability index is 2.45.

Consider GSKFRYSGRTQAQTRRASSLIDRP [A19S], for which the protein stability index stood at 3.41.

Consider GSKFRYSGRTQAQTRRASRLIDRP [A19R], for which the protein stability index amounted to 3.43.

As for GSKFRYSGRTQAQTRRASFLIDRP [A19F], the protein stability index is 2.41.

Take NSKFRYSGRTQAQTRRASALIDRP [G1N]: the protein stability index was determined as 3.34.

For the variant ISKFRYSGRTQAQTRRASALIDRP [G1I], the protein stability index was found to be 2.53.

For DSKFRYSGRTQAQTRRASALIDRP [G1D], the protein stability index was determined as 3.06.

On to ASKFRYSGRTQAQTRRASALIDRP [G1A], for which the protein stability index turned out to be 3.02.

With RSKFRYSGRTQAQTRRASALIDRP [G1R], the protein stability index came to 3.17.

Regarding WSKFRYSGRTQAQTRRASALIDRP [G1W], the protein stability index came to 2.33.
